T1: TR4:Fc receptor (human, UniProt O00220 109-240)
T1 construct: also called TR4-Fc fusion protein; not shown: Fc region
T1 chain: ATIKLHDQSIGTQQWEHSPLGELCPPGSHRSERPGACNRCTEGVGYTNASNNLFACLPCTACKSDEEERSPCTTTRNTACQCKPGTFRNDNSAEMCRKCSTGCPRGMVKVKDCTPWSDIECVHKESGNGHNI

T2: TR5 (human, UniProt O14798 30-242)
T2 construct: Antigen coated in the specificity phage ELISA; also called TRAIL-R3; DcR1
T2 chain: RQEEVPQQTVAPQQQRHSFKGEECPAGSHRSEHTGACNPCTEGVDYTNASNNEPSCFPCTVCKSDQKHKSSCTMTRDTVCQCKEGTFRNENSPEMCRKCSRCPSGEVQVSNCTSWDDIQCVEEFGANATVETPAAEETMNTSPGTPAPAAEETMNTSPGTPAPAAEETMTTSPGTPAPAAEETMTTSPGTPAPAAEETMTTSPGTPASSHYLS

T3: TR10 (human, UniProt Q9UBN6 56-204, limits assumed)
T3 construct: Antigen coated in the specificity phage ELISA; also called TRAIL-R4; DcR2
T3 sequence: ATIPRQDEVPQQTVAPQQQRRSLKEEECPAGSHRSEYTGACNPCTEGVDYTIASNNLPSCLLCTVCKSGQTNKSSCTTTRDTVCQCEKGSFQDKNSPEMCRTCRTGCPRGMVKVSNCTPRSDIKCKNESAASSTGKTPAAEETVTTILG

B1: IgG1 antibody comprising the VH and VL domains of the T1014G03 scFv (antibody, V domains shown)
VH: EVQLVQSGAEVKMPGASVKLSCRVSGDTFTAYFIHWVRQAPGQGLEWMGWFNPISGTAGSAEKFRGRVAMTRDTSISTAYMELNRLTFDDTAVYYCARQHRGNTFDPWGQGTLVTVSS
VL: QSALTQPASVSGSPGQSITISCTGTSSDIGAYKYVSWYQQHPGKAPKLVIYEVSNRPSGVSSRFSGSKSGQTASLTISGLQADDEADYYCNSYQGYNTWVFGGGTKVTVLG
notes: Whole IgG1
B2: IgG1 antibody comprising the VH and VL domains of the T1014A04 scFv (antibody, V domains shown)
VH: EVQLVQSGADVKRPGASVKVSCKISGDSFNAYFIHWVRQAPGQGLEWMGWFNPDSGTADSAQKFHGRVTMTRDTSSSTAFLELSRLRSDDTAVYYCVRQHRGNTFAPWGRGTMVTVSS
VL: QSVLTQPPSASGSPGQSVTISCTGTTSDVGGYNYVSWYQQHPGKAPKLMIYGVNQRPSGVPDRFSGSKSGNTASLTVSGLQAEDEADYYCSSYAGSNNWVFGGGTKLTVLG
notes: Whole IgG1; also called IgG1 format of T1014A04
B3: IgG1 antibody comprising the VH and VL domains of the T1014G04 scFv (antibody, V domains shown)
VH: B2 VH with N30T, M113L
VL: QPVLTQPPSASGSPGQSVTISCTGTSSDVGSYEYVSWYQQHPGKAPRLMISEVNKRPSGVPNRFSGSKSGNTASLTVSGLQADDEADYYCSSYAGSNNWVFGGGTKVTVLG
notes: Whole IgG1; also called T14G04
B4: scFv T1014G04 (scFv)
scFv: EVQLVQSGADVKRPGASVKVSCKISGDSFTAYFIHWVRQAPGQGLEWMGWFNPDSGTADSAQKFHGRVTMTRDTSSSTAFLELSRLRSDDTAVYYCVRQHRGNTFAPWGRGTLVTVSSGGGGSGGGGSGGGGSAQPVLTQPPSASGSPGQSVTISCTGTSSDVGSYEYVSWYQQHPGKAPRLMISEVNKRPSGVPNRFSGSKSGNTASLTVSGLQADDEADYYCSSYAGSNNWVFGGGTKVTVLG
B5: scFv T1014F08 (scFv)
scFv: EVQLVQSGAEVKKPGASVKLSCRVSGDTFTAYFIHWVRQAPGQGPEWMGWFNPISGTAGSAARFRGRVAMTRDTSISTAYMELNRLTFDDTAVYYCARQHRGNTFDPWGKGTLVTVSSGGGGSGGGGSGGGGSALPVLTQPPSASGSPGQSVTISCTGTSSDVGGYKYVSWYQQHPGKAPKLMIYEVSMRPSGVPDRFSGSKSGNTASLTVSGLQAEDEADYYCASYAGSNNWVFGGGTKLTVLG
B6: scFv T1014A04 (scFv)
scFv: EVQLVQSGADVKRPGASVKVSCKISGDSFNAYFIHWVRQAPGQGLEWMGWFNPDSGTADSAQKFHGRVTMTRDTSSSTAFLELSRLRSDDTAVYYCVRQHRGNTFAPWGRGTMVTVSSGGGGSGGGGSGGGGSAQSVLTQPPSASGSPGQSVTISCTGTTSDVGGYNYVSWYQQHPGKAPKLMIYGVNQRPSGVPDRFSGSKSGNTASLTVSGLQAEDEADYYCSSYAGSNNWVFGGGTKLTVLG
B7: scFv T1014G03 (scFv)
scFv: EVQLVQSGAEVKMPGASVKLSCRVSGDTFTAYFIHWVRQAPGQGLEWMGWFNPISGTAGSAEKFRGRVAMTRDTSISTAYMELNRLTFDDTAVYYCARQHRGNTFDPWGQGTLVTVSSGGGGSGGGGSGGGGSAQSALTQPASVSGSPGQSITISCTGTSSDIGAYKYVSWYQQHPGKAPKLVIYEVSNRPSGVSSRFSGSKSGQTASLTISGLQADDEADYYCNSYQGYNTWVFGGGTKVTVLG
B8: scFv T1014B11 (scFv)
scFv: EVQLVQSGAEVKKPGASVKVSCKISGDSFTAYFIHWLRQAPGEGLEWMGWFNPISGTAGSPQKFHGRVAMTRDTSISTAYMELTRLASDDTAIYYCARQHHSNTFDPWGQGTLVTVSSGGGGSGGGGSGGGGSAQSALTQPASVSGSPGQSITISCTGTNSDVGGYNYVSWYQQHPGKAPKLMIYEVNNRPSGVSNRFSGSKSGNTASLTISGLQADDEADYYCSSYTTSNTWVFGGGTKLTVLG

Positions count from the first letter of the chain named.

The first assay concerns the target T1, TR4:Fc receptor. The experiment in a line: SPR (BIAcore 2000), TR4:Fc amine-coupled on CM5 chip, IgG1 as analyte, double reference subtraction, 1:1 Langmuir fit, 25 C. The protocol:
The optimal pH for this coupling was analyzed using preconcentration experiments ranging from pH 4-7 and was determined to be pH 4.0 for both the TR4 and the TR2 receptor. Amine coupling was used to covalently bind each receptor (fc) to the dextran matrix on the CM5 sensor chip. The immobilization experiment was performed using the manual injection mode. The entire immobilization experiment was performed at 5 μL/min. A 3-minute injection of EDC/NHS (1:1) was applied to each flow cell to active esters. A target level of ˜200RU was set as the goal for all each flow cell. Fc-fusion receptors, TR4 and TR2 at 5 μg/mL, were immobilized onto individual flow cells of a sensor chip. The amount applied varied from 8-14 μL. A 3-minute ethanolamine injection completed the immobilization experiment by inactivating the esters.
The kinetics cycles were performed as follows: The flow rate for the entire cycle was 25 μL/minute with the flow path including both the control (TR2) and experimental (TR4) flow cell at all times. A 1-minute buffer injection was applied to stabilize the baseline. The purified antibody (IgG1 antibody comprising the VH and VL domains of each of the T1014A04, T1014G03, T1014F08, and T14G04 scFvs) was diluted from 10 μg/mL (65 nM) to 0.115 μg/mL (0.75 nM) in running buffer and tested in duplicate. Each concentration was in contact with the control (TR2) and the experimental (TR4) flow cell during a 4-minute association and a 10-minute dissociation phase. Regeneration was performed using 25 mM NaOH from 5-12 μL depending on the sample concentration.
A double-reference subtraction was performed, which refers to the control flow cell subtraction for every cycle, in addition to a buffer cycle subtraction. The 1:1 Langmuir model was used for all evaluation fitting.
On the technique in general: In SPR one partner is held on a chip, and binding of the other changes the refractive index at the surface.
For B1, the affinity, expressed as Kd, was 0.554 nM.
Still for that read-out and setting: as for B2, the figure is 0.468 nM; as for B3, 0.194 nM.

For a further assay, the target named is T4, TR7 (human, UniProt O14763 52-184, limits assumed).
T4 construct: Antigen coated in the specificity phage ELISA; also called TRAIL-R2; DR5
The assay is described as follows: specificity phage ELISA, antigen coated at 1 ug/ml. The protocol: (§1) Flexible 96-well plates (Falcon) were coated overnight at 4° C. with each antigen (1 μg/ml). All antigens were coated in PBS. After coating, the solutions were removed from the wells, and the plates were blocked for 1 hour at room temperature in MPBS. The plates were washed 3 times with PBS and then 50 μl of pre-blocked phage was added to each well. The plates were incubated at room temperature for 1 hour and then washed with 3 changes of PBST followed by 3 changes of PBS.
(§2) To each well, 50 μl of an anti-M13-HRP conjugate (Pharmacia) at a 1 in 5000 dilution in MPBS was added and the plates incubated at room temperature for 1 hour. Each plate was washed three times with PBST followed by three times with PBS.
(§3) Fifty μl of TMB substrate was then added to each well, and incubated at room temperature for 30 minutes or until colour development. The reaction was stopped by the addition of 25 μl of 0.5 M H₂SO₄. The signal generated was measured by reading the absorbance at 450 nm (A₄₅₀) using a microtitre plate reader (Bio-Rad 3550).
A general note: An ELISA detects its analyte on a solid surface through an enzyme-linked reagent.
Consider B4, for which the binding result is reported as “no binding”.
Still for that read-out and setting: as for B5, the entry is “no binding”; as for B6, “no binding”.
Consider B7, for which the binding result is “no binding”.
Still for that read-out and setting: next, B8: “no binding”.

The next assay deals with T2, TR5. The experiment in a line: specificity phage ELISA, antigen coated at 1 ug/ml. Here is the method:
as §1, §2, §3
For B4, the binding result is recorded as “no binding”.
Still for that read-out and setting: as for B5, the entry is “no binding”; as for B6, “no binding”; as for B7, “no binding”.
The same measure, in the same setting: next, B8: “no binding”.

Another assay deals with T5, BLyS (human, UniProt Q9Y275 134-285, limits assumed).
T5 construct: Unrelated control antigen in the specificity phage ELISA
T5 sequence (Q9Y275 134-285 limits assumed): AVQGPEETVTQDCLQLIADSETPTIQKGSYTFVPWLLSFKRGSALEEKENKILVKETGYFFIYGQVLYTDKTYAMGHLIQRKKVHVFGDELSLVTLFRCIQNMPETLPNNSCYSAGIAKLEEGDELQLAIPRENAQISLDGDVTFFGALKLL
The experiment in a line: specificity phage ELISA, antigen coated at 1 ug/ml. The protocol: as §1, §2, §3
B4: the binding result is given as “no binding”.
Consider B5, for which the binding result is “no binding”.
As to B6, the binding result was “no binding”.
The same measure, in the same setting: as for B7, the entry is “no binding”.
With B8, the binding result was “no binding”.

The next assay deals with T3, TR10. The assay is described as follows: specificity phage ELISA, antigen coated at 1 ug/ml. Here is the method:
as §1, §2, §3
On to B4, for which the binding result was “no binding”.
As for B5, the binding result was “no binding”.
In the case of B6, the binding result is reported as “no binding”.
Still for that read-out and setting: next, B7: “no binding”; B8: “no binding”.

For the origin of these results see US20090226429A1 (Human Genome Sciences, published 2009).
